Source: the supplement of paper PMC11865577

Test system: TO-3-N3 (biotin conjugate)
Test: pull-down binding Z-score (relative to library population); higher = stronger binding
Conditions: RNA library: Library-2
Method in brief: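 Biotin-conjugated small molecule (100 pmol) on streptavidin beads was incubated with 1 μg of heat-folded Cy5- or Cy3-end-labelled RNA library in phosphate/NaCl/KCl buffer at 25 °C for 60 min. Following three washes, RNA was eluted with hot SDS and hybridised at 55.5 °C for 20 h to a DNA barcode microarray. The binding value is a Z-score computed from the library mean and standard deviation, after subtraction of beads without compound and averaging of barcoded replicate probes with the highest and lowest excluded.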

Compared with “UCUUAAGAGAGGUGAUAAAAGUGUAUAUUACACUAGUAAUCCUACCACAUUCCACCUAGAUGGUGAAGUUAUCACCUUUGACAAUCUUAAGA”, “UCUUCAGGUUGGACAGCUGGUGCUGCAGCUUAUUAUGUGGGUUAUCUUCAACCUAGGA [DMSMaPseq_invitro_SARS-CoV-2_Multi_66_ComplexLevel_1]” is lower in “pull-down binding Z-score” value: 0.836 for the first, -0.145 for the second.

First: UCUUGCCGAAUACCAUAAUGAAUCUGGCUUGA [SHAPE_invivo_SARS-CoV-2_Motif_27]
Second: UCUUUAAGGAAGGAAGUUCUGUUGAAUUAAAACACUUCUUCUUUGCUCAGGA [DMSMaPseq_invitro_SARS-CoV-2_Motif_265]
The “pull-down binding Z-score” value of the first is higher: -0.617 for the first, -0.904 for the second.

Compared with “UCUUUAUUUGACAUGAGUAAAUUUCCCCUUAAAUUAAGGGGUACUGCUGUUAUGUCUUUAAAAGA [SHAPE_invitro_SARS-CoV-2_Motif_387]”, “UCUUUCAUGGGA [DMSMaPseq_invitro_SARS-CoV-2_Motif_300]” is higher in “pull-down binding Z-score” value: -0.896 for the first, 0.66 for the second.

First: UGAACCACAAAUCA [SHAPE_invitro_SARS-CoV-2_Motif_451]
Second: UGAAGUAUUUUGUGAAAAUAGGACCUGAGCGCACCUGUUGUCUAUGUGAUAGACGUGCCACAUGCUUUUCCACUGCUUCA [SHAPE_invitro_SARS-CoV-2_Motif_342]
The “pull-down binding Z-score” value of the first is lower: -0.745 for the first, -0.573 for the second.

Going from “UGAAUUAGACUCAUUCA [DMSMaPseq_invitro_SARS-CoV-2_Motif_447]” to “UGACAUGACUCUUGAGGAAAUGUCA [IAV_invivo_NS1_NEP_8_Motif_7+IAV_invivo_NS1_NEP_8_Motif_7]”, the “pull-down binding Z-score” value rises from -0.55 to -0.475.

Compared with UGACAUUACACCAUGUUCUUUUGGUGGUGUCA, “UGACCAGUCUUCUUACAUCGUUGAUAGUGUUACAGUGAAGAAUGGUUCCAUCCAUCUUUACUUUGAUAAAGCUGGUCA” is higher in “pull-down binding Z-score” value: -0.87 for the first, -0.506 for the second.

Going from “UGACGAUGCUGUUGUGUGUUUCAAUAGCACUUAUGCAUCUCA [SHAPE_invitro_SARS-CoV-2_Motif_289]” to “UGAGUACUGUAGGCACGGCACUUGUGAAAGAUCAGAAGCUGGUGUUUGUGUAUCUACUAGUGGUAGAUGGGUACUUA [DMSMaPseq_invitro_SARS-CoV-2_Multi_29_ComplexLevel_1]”, the “pull-down binding Z-score” value falls from 1.24 to -0.254.

Compared with “UGAGUGUGACAUACCCAUUGGUGCAGGUAUAUGCGCUAGUUAUCAGACUCA”, “UGAUAAAUUCA [SHAPE_invivo_SARS-CoV-2_Motif_325]” is lower in “pull-down binding Z-score” value: 0.734 for the first, -0.376 for the second.

Compared with “UGAUAGUCAACAAACUGUUGGUCAACAAGACGGCAGUGAGGACAAUCA”, “UGAUGCAGCCAUGCAACGUAAGUUGGAAAAGAUGGCUGAUCA” is lower in “pull-down binding Z-score” value: 0.68 for the first, -1.03 for the second.

Compared with “UGAUGCGUAUUAUGACAUGGUUGGAUAUGGUUGAUACUAGUUUGUCUGGUUUUAAGCUAAAAGACUGUGUUAUGUAUGCAUCA”, “UGAUGGUGUUCCAUUUGUAGUUUCAACUGGAUACCACUUCA [DMSMaPseq_invitro_SARS-CoV-2_Motif_261]” is higher in “pull-down binding Z-score” value: -0.867 for the first, -0.0305 for the second.

First: UGAUGUCACAGAUGUGACUCA
Second: UGAUGUUUGUCA
The “pull-down binding Z-score” value of the first is lower: -0.773 for the first, -0.46 for the second.

First: UGAUUUUUGUGGAAAGGGCUAUCAUCUUAUGUCCUUCCCUCAGUCA [SHAPE_invivo_SARS-CoV-2_Motif_462]
Second: UGCAACGAUACCGAUACAAGCCUCACUCCCUUUCGGAUGGCUUAUUGUUGGCGUUGCA
The “pull-down binding Z-score” value of the first is lower: -0.662 for the first, -0.475 for the second.

First: UGCAAGAGAUGGUUGUGUUCCCUUGAACAUAAUACCUCUUACA [DMSMaPseq_invitro_SARS-CoV-2_Motif_219]
Second: UGCACUUGACCCUCUCUCAGAAACAAAGUGUA
The “pull-down binding Z-score” value of the first is lower: -0.678 for the first, 0.756 for the second.

Compared with UGCAGAUUCAACUUUGAUUGGUGAUUGUGCA, UGCAGAUUUGGAUGAUUUCUCCAAACAAUUGCA is lower in “pull-down binding Z-score” value: 0.338 for the first, 0.0526 for the second.

Compared with “UGCAGCAGAAACGCUCA [SHAPE_invitro_SARS-CoV-2_Motif_303]”, “UGCAUUUCUUACCUAGAGUUUUUAGUGCA [DMSMaPseq_invitro_SARS-CoV-2_Motif_163]” is lower in “pull-down binding Z-score” value: 0.273 for the first, -0.82 for the second.

Compared with “UGCCAUUUGUCAUGAUGGAAAAGCACACUUUCCUCGUGAAGGUGUCUUUGUUUCAAAUGGCA [SHAPE_invivo_SARS-CoV-2_Motif_465]”, “UGCCGACUACUAUAGCAAAGAAUACUGUUAAGAGUGUCGGUA” is lower in “pull-down binding Z-score” value: -0.108 for the first, -0.357 for the second.

Compared with “UGCCUUCAAACUCAACAUUAAAUUGUUGGGUGUUGGUGGCA”, “UGCGAGAAAUGCUUGCA [SHAPE_invitro_SARS-CoV-2_Motif_85]” is higher in “pull-down binding Z-score” value: -0.701 for the first, 1.12 for the second.

First: UGCUAACUAAGGGCA
Second: UGCUCAAGAAGCUUAUGAGCA [SHAPE_invivo_SARS-CoV-2_Motif_229]
The “pull-down binding Z-score” value of the first is higher: 0.877 for the first, -0.554 for the second.

Compared with UGCUGAGGCUUCUAAGAAGCCUCGGCA, “UGCUGUUGUUAAAAUUUAUUGUCCAGCA [SHAPE_invitro_SARS-CoV-2_Motif_28]” is lower in “pull-down binding Z-score” value: 0.0854 for the first, -0.341 for the second.

Compared with UGCUUUCGUGGUA, “UGCUUUGGUGUAAAGAUGGCCAUGUAGAAACAUUUUACCCAAAAUUACAAUCUAGUCAAGCGUGGCAACCGGGUGUUGCUAUGCCUAAUCUUUACAAAAUGCA” is lower in “pull-down binding Z-score” value: 0.137 for the first, -0.104 for the second.

Going from UGGAAUUGCAAUGUCGAUAGAUAUCCUGCUAAUUCCA to “UGGAGGAAUACAAAUCCA [SHAPE_invitro_SARS-CoV-2_Motif_386]”, the “pull-down binding Z-score” value rises from -0.0259 to 0.291.

Going from “UGGAUGUAAUUAUCUUGGCAAACCACGCGAACAAAUAGAUGGUUAUGUCAUGCAUGCA” to “UGGCAUGGAAGUCA [DMSMaPseq_invitro_SARS-CoV-2_Motif_525]”, the “pull-down binding Z-score” value rises from -0.833 to 0.0287.

First: UGGCAUUAAUGCUUCAGUUGUAAACAUUCAAAAAGAAAUUGACCGCCUCAAUGAGGUUGCCA
Second: UGGCCAUGGUACAUUUGGCUA
The “pull-down binding Z-score” value of the first is lower: -0.964 for the first, 0.537 for the second.

Compared with “UGGCCCCGAUUUCAGCUAUGGUUA [SHAPE_invitro_SARS-CoV-2_Motif_146]”, “UGGCCGCAAAUUGCACAAUUUGCCCCCA [SHAPE_invitro_SARS-CoV-2_Motif_532]” is lower in “pull-down binding Z-score” value: -0.129 for the first, -0.293 for the second.

Going from “UGGGAUAUUGCCCG [IAV_invivo_PB2_1_Motif_20+IAV_invivo_PB2_1_Motif_20]” to “UGGGAUUAUCCUA [DMSMaPseq_invitro_SARS-CoV-2_Motif_276]”, the “pull-down binding Z-score” value rises from -0.462 to 0.251.

First: UGGGCACACUUUCUUAUGAACAAUUUAAGAAAGGUGUUCA [SHAPE_invivo_SARS-CoV-2_Motif_116]
Second: UGGGGACCAGGAACUAAUCAGACAAGGAACUGAUUACAAACAUUGGCCGCAAAUUGCACAAUUUGCCCCCA
The “pull-down binding Z-score” value of the first is lower: -0.385 for the first, -0.075 for the second.

Compared with “UGGGGAGUUGAACCUA [IAV_invivo_PB2_1_Motif_19+IAV_invivo_PB2_1_Motif_19]”, “UGGGGAUCACAACUCA [IAV_invivo_PB1_2_Motif_11+IAV_invivo_PB1_2_Motif_11]” is higher in “pull-down binding Z-score” value: 0.448 for the first, 0.479 for the second.

First: UGGGGCGCGAUCAAAACAACGUCGGCCCCA
Second: UGGGGUUGGGGUUGGGGUUGGGGUUGGGGUUGGGGU [G4_r(UGGGGU)6]
The “pull-down binding Z-score” value of the first is lower: 0.2 for the first, 7.92 for the second.

First: UGGGGUUGGGGUUGGGGUUGGGGUUGGGGUUGGGGUUGGGGUUGGGGU [G4_r(UGGGGU)8]
Second: UGGGUAGAAUUCGAUCUGUCUAUCCA
The “pull-down binding Z-score” value of the first is higher: 7.69 for the first, -0.51 for the second.

Going from “UGGGUUACAUCCUACACAGGCACCUACACACCUCAGUGUUGACACUAAAUUCAAAACUGAAGGUUUAUGUGUUGACAUACCUGGCAUACCUAAGGACAUGACCUA” to UGGGUUAUCUUCAACCUA, the “pull-down binding Z-score” value falls from -0.497 to -0.534.

First: UGGGUUGGGUUGGGUUGGGUUGGGUUGGGU [G4_r(UGGGU)6]
Second: UGGGUUGGGUUGGGUUGGGUUGGGUUGGGUUGGGUUGGGU [G4_r(UGGGU)8]
The “pull-down binding Z-score” value of the first is lower: 8.7 for the first, 8.92 for the second.

First: UGGUAAUGCUGCUAUCAGCGAUUAUGACUACUAUCGUUAUAAUCUACCA
Second: UGGUACUAUCUAUACAGAACUGGAACCA [SHAPE_invitro_SARS-CoV-2_Motif_233]
The “pull-down binding Z-score” value of the first is lower: -0.937 for the first, -0.352 for the second.

Going from “UGGUACUGAAGAUGAUUACCA [SHAPE_invitro_SARS-CoV-2_Motif_57]” to UGGUAUUCUUGCUA, the “pull-down binding Z-score” value falls from -0.272 to -0.297.

Going from “UGGUGUUAGAAGGUCCUUUUAUGUCUAUGCUAAUGGAGGUAAAGGCUUUUGCAAACUA [SHAPE_invitro_SARS-CoV-2_Motif_149]” to UGGUUGGUUGGUUGGUUGGUUGGU [G4_r(UGGU)6], the “pull-down binding Z-score” value rises from -0.638 to 7.93.
